T1: HLA-A2 (human), P04439
T1 chain: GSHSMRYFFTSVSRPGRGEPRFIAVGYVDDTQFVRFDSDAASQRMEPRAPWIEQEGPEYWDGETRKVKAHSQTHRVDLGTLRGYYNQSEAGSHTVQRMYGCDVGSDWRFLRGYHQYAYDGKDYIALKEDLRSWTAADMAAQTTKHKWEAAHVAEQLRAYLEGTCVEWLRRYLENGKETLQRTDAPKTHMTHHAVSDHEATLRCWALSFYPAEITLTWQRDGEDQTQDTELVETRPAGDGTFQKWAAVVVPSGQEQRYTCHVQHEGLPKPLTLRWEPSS


Biological target: T1, HLA-A2 (human), P04439
Test: competitive binding assay (flow cytometry)
Details: modification not given

Binder	IC50 [µM]
ALVCYGPGV [FAPα463-471 (471V) (…)]	4.6
ALLVMCIVL [FAPα18-26 (…)]	650
KLLEENKEV [FAPα486-494 (487L, 494V) (…)]	25.4
VLALLVMCI [FAPα16-24 (…)]	150

Further lines, results first:

IC50 [µM]	Binder
21.3	KLLEENKEL [FAPα486-494 (487L) (…)]
3.9	ALVCYGPGL [FAPα463-471 (471L) (…)]

Source: patent US20080058272A1, “Nonamer Peptides for Cancer Treatment” (priority 2006, published 2008)
